Results taken from patent US11685791B2, “Antibody binding specifically to N-terminal region of lysyl-tRNA synthetase exposed on cell membrane” (Zymedi Co., Ltd., priority 2017, dated 2023).

Key:
[1] = test system: pulmonary arterial hypertension (PAH) models; experiment: Echocardiography in PAH model; type: in vivo, rat; conditions: MCT PAH rats, five animals per group
Description: To induce PAH in seven-week-old SD rats (Orient Bio), 60 mpk of monocrotaline (MCT) was subcutaneously injected. […] All antibodies were i.v. injected twice a week, and sildenafil was orally administered every day.

[2] = biological target: T1, extracellularly exposed KRS N-terminal region (Homo sapiens, UniProt Q15046, T52D); experiment: Immunofluorescence staining of converted IgGs; type: cell-based; conditions: T52D-KRS (active mutant, myc tagged KRS)
T1 construct: expressed in transfected cells; host or cells: A549
T1 sequence (Q15046 whole entry T52D): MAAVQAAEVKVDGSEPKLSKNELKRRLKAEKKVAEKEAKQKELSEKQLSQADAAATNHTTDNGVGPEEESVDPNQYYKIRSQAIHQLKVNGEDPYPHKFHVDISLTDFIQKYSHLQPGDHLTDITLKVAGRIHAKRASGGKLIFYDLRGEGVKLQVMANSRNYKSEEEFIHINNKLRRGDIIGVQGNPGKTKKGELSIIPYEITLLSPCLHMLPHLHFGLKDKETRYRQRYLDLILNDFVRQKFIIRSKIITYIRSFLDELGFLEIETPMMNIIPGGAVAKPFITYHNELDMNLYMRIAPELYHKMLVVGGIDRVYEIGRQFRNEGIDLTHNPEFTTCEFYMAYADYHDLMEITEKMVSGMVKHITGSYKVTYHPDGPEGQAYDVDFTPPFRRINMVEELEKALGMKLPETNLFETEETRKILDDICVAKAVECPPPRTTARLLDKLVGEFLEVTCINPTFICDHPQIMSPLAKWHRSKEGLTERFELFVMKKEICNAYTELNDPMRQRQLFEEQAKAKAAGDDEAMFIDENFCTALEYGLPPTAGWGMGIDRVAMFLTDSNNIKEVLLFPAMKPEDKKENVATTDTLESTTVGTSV
Description: (§1) Immunofluorescence was performed to investigate whether the scFv clones selected in Example <1-5> actually bound to the KRS N-terminal region exposed on the cell membrane. In order to make a phenomenon in which KRS is exposed on the membrane, KRS-T52D mutant (active mutant) was used. […] After incubation for 24 h, the cells were incubated using serum-free media (RPMI 1640 media) at 37° C. for 1 h. Thereafter, the cells were treated with 10 μg/ml laminin (L2020; Sigma) and then incubated at 37° C. for 1 h.
(§2) The prepared samples were washed with PBS (4° C.), fixed by the treatment with 4% paraformaldehyde for 10 min, and then washed. The samples were blocked with CAS block for 10 min, and treated with the scFv and Myc antibodies for 2 h. Thereafter, the unbound antibodies were washed out, and incubated with secondary antibodies for 1 h in a dark room. DAPI staining was performed for 10 min before mounting.
(§3) To investigate whether the IgGs constructed in the present invention actually bound to the region of KRS exposed on the cell membrane, immunofluorescence was performed. Immunofluorescence staining was performed by the same method as described in Example <1-6> by using N3 IgG and N5 IgG as representatives.

[3] = biological target: T2, extracellularly exposed KRS N-terminal region (Homo sapiens, UniProt Q15046); experiment: Immunofluorescence staining of converted IgGs; type: cell-based; conditions: WT-KRS membrane localization induced by laminin treatment
T2 construct: expressed in transfected cells; host or cells: A549
T2 sequence (Q15046 whole entry): as the sequence (Q15046 whole entry T52D) above, with D52T counted along it
Description: as §1, §2, §3

[4] = test system: KRS level in the monocyte/macrophage cell membrane (RAW 264.7 cells); experiment: Western blotting of KRS in membrane and cytosol fractions after LN421 treatment; type: cell-based; conditions: 100 nM, 24 h, laminin 421 1 μg/ml
Description: RAW 264.7 cells (2×10^6 cell) were incubated for 18 hr, treated with 1 μg/ml of each laminin subtype in serum-free DMEM, and then harvested at 0 h, 12 h, and 24 h. RAW 264.7 cell protein was separated into cytosol and membrane fractions by using the ProteoExtract Subcellular Proteome Extraction Kit (Calbiotech, cat #539790). The obtained protein was electrophoresed, transferred onto PVDF membrane (Milipore), and blocked with 3% skim milk. Thereafter, KRS polyclonal antibody (rabbit, Neomics, Co. Ltd. #NMS-01-0005) was added, followed by incubation for 1 h. After the unbound antibodies were washed out, anti-rabbit secondary antibodies (ThermoFisher Scientific, #31460) were added, followed by incubation. After incubation with the secondary antibodies, film sensitization was carried out using ECL reagent as a substrate in a dark room. The sensitized bands were compared with standard molecule markers to identify bands corresponding to KRS sizes. Na+/K+ ATPase (Abcam) and tubulin (Sigma) antibody were used for plasma membrane and cytosol marker identification, respectively. RAW 264.7 cells were treated with laminin 421 (1 μg/ml) and antibody (100 nM), incubated for 24 h, and harvested. […]

[5] = test system: mouse KRS N-terminal peptide fragments (mF1-mF5); experiment: SPR (Biacore T200) of immobilized N3 IgG against mouse KRS N-terminal peptide fragments; type: binding
Description: In the same manner as the experimental method described in Example 4-1 above, N3 IgG antibody was immobilized on the chip by using an amine coupling kit (GE Healthcare). Then, the peptides shown in Table 4 above dissolved in PBS solution at corresponding concentrations were allowed to flow for 60 s, and PBS was allowed to flow for 5 min. Then, the binding ability was analyzed by Biacore T200 Evaluation software v2.0 (GE Healthcare).

[6] = test system: human KRS N-terminal peptide fragments (F1-F5); experiment: SPR (Biacore T200) of immobilized N3 IgG against human KRS N-terminal peptide fragments; type: binding
Description: First, N3 IgG antibody was immobilized to Biacore T200 (GE Healthcare) equipped with Series S sensor chip CM5 (GE Healthcare) by using an amine coupling kit (GE Healthcare). Then, the peptides shown in Table 4 below dissolved in PBS solution at corresponding concentrations were allowed to flow for 60 s. Then, PBS was allowed to flow for 5 min. Then, the binding ability was analyzed by Biacore T200 Evaluation software v2.0 (GE Healthcare).

RAW 264.7 cells = experiment: Transwell migration assay of monocytes/macrophages with laminin 421; type: cell-based; conditions: 100 nM, 24 h, laminin 421 1 μg/ml
Description: The effect on immune cell migration and invasion was investigated using N3 IgG antibody as a representative among the antibodies constructed in Example 1 above. Specific experimental methods were as follows. Transwell (Corning, #3421-5 mm) was coated with gelatin (0.5 mg/ml), and then RAW 264.7 cells (1×10^5 cells/well) were seeded in the top chamber. Serum-free DMEM (500 μl) containing laminin 421 (1 μg/ml) was placed in the bottom chamber. The top chamber was treated with each antibody at 100 nM. After 24 h, immobilization with 70% methanol was carried out for 30 min, and then staining with 50% hematoxylin was carried out for 30 min. The non-migrating cells present on the upper part of the membrane were removed by cotton swabs, and then the membrane was taken and mounted on the slide. The migrating cells present on the bottom surface of the membrane were observed by a high-resolution microscope (FIG. 20A), and the cells were counted on the obtained images and plotted on the graph (FIG. 20B).

[7] = N3 IgG immobilized, peptides in PBS

B1: N3 IgG: IgG converted from N3 scFv; VH SEQ ID NO: 49, VL SEQ ID NO: 51; binds KRS N-terminal region (antibody, V domains shown)
VH: EVQLLESGGGLVQPGGSLRLSCAASGFTFSSYDMSWVRQAPGKGLEWVSAISYDNGNTYYADSVKGRFTISRDNSKNTLYLQMNSLRAEDTAVYYSARMALDFDYWGQGTLVTVSS
VL: QSVLTQPPSASGTPGQRVTISCTGSSSNIGSNYVTWYQQLPGTAPKLLIYDNSNRPSGVPDRFSGSKSGTSASLAISGLRSEDEADYYCASWDDSLSAYVFGGGTKLTVL
- D-shaped left ventricle finding indicating pressure overload in the right ventricle [1]: not observed
- binding to extracellularly exposed KRS N-terminal region (immunofluorescence) [2]: favorably bound
- binding to extracellularly exposed KRS N-terminal region (immunofluorescence) [3]: favorably bound specifically
- KRS level in the cell membrane [4]: effectively reduced
- relative binding ability, epitope F3 vs F1 (mouse) [5]: stronger binding ability to epitope F3 than F1
- binding to mouse KRS N-terminal epitopes F1-F5 (SPR) ([5]; F2 and F4 data not shown): bound to epitopes F1, F2, F3, and F4 of human (h), mouse (m), and rat (r) but not epitope F5
- binding to human KRS N-terminal epitopes F1-F5 (SPR) [6, 7]: bound to epitopes F1, F2, F3, and F4, but not epitope F5
- rank of binding ability among human epitopes [6, 7]: the binding ability to epitope F4 was strongest, and the binding ability to F3, F2, and F1 was stronger in that order
- main binding site in the KRS N-terminal region ([6]; amino acid positions): positions 15 to 29
- inhibition of LN421-dependent monocyte/macrophage migration (RAW 264.7 cells): effectively inhibited
